Measured values as given in paper PMC3273827.

Target: T1, La(4-325) (Homo sapiens, UniProt P05455 4-325)
T1 sequence: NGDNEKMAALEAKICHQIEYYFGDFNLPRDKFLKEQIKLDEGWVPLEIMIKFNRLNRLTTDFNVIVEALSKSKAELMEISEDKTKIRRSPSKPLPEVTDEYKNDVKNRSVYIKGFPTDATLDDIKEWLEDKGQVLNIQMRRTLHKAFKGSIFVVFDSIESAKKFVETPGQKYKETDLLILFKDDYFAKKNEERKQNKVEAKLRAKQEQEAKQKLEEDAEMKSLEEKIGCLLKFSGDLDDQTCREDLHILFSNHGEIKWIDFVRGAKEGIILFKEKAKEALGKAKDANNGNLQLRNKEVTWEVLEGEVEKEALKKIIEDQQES
Test: ITC

B1: 27-mer ssRNA (ssRNA)
RNA: ACCUAACCACCACUACCACCUCCCACA
**Q.** Does B1 bind?
**A.** Result: no binding
